Results published in patent CN114907476A.

Key:
[1] = target: Jurkat-hTIGIT-NFAT-CD226细胞上过表达的人TIGIT (human); experiment: cell-based or functional assay
[2] = target: 表达于CHOK1细胞表面的人TIGIT (CHOK1/人TIGIT细胞, 吉满生物 GM-C01116) (human) (UniProt Q495A1); experiment: flow cytometry on CHOK1/hTIGIT cells
[3] = target: 表达于CHOK1细胞表面的人TIGIT (CHOK1/人TIGIT细胞, 吉满生物 GM-C01116) (human) (UniProt Q495A1); experiment: flow cytometry competition, inhibition of Biotinylated-CD155 (0.6μg/ml) binding to CHOK1/hTIGIT cells
[4] = target: 表达于CHOK1细胞表面的人TIGIT (CHOK1/人TIGIT细胞, 吉满生物 GM-C01116) (human) (UniProt Q495A1); experiment: flow cytometry competition, inhibition of Biotinylated-CD155 (0.6μg/ml) binding to CHOK1/human TIGIT cells

Chain of UniProt Q495A1 (Q495A1 22-244, one chain of several): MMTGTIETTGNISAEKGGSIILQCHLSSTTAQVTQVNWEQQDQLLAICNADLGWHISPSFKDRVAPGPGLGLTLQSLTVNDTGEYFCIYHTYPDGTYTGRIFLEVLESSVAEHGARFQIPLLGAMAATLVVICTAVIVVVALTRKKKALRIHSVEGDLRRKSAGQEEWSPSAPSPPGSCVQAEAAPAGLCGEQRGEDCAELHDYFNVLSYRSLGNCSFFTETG

Max RLU [1]: 7110 RLU | 最大RLU [1]: 6320 RLU | 最大MFI [2]: 229 MFI | 最大抑制 [3]: 6.36% | 最大抑制 [4]: 3.03%
Substance: IgG对照 (antibody)
